According to patent US20080207488A1, “Method for Detecting Peptides Comprising a Cross-B Structure” (priority 2005, published 2008):

What was measured:
[1] = target: tissue-type plasminogen activator (tPA) (human) (UniProt P00750); assay: cell-based or functional assay
[2] = target: human coagulation factor VIII isolated from healthy volunteers (Aafact) (human) (UniProt P00451); assay: ELISA, therapeutic coated, tPA concentration series, one-site binding fit
Sequence of human coagulation factor VIII isolated from healthy volunteers (Aafact) (human) (P00451 20-2351): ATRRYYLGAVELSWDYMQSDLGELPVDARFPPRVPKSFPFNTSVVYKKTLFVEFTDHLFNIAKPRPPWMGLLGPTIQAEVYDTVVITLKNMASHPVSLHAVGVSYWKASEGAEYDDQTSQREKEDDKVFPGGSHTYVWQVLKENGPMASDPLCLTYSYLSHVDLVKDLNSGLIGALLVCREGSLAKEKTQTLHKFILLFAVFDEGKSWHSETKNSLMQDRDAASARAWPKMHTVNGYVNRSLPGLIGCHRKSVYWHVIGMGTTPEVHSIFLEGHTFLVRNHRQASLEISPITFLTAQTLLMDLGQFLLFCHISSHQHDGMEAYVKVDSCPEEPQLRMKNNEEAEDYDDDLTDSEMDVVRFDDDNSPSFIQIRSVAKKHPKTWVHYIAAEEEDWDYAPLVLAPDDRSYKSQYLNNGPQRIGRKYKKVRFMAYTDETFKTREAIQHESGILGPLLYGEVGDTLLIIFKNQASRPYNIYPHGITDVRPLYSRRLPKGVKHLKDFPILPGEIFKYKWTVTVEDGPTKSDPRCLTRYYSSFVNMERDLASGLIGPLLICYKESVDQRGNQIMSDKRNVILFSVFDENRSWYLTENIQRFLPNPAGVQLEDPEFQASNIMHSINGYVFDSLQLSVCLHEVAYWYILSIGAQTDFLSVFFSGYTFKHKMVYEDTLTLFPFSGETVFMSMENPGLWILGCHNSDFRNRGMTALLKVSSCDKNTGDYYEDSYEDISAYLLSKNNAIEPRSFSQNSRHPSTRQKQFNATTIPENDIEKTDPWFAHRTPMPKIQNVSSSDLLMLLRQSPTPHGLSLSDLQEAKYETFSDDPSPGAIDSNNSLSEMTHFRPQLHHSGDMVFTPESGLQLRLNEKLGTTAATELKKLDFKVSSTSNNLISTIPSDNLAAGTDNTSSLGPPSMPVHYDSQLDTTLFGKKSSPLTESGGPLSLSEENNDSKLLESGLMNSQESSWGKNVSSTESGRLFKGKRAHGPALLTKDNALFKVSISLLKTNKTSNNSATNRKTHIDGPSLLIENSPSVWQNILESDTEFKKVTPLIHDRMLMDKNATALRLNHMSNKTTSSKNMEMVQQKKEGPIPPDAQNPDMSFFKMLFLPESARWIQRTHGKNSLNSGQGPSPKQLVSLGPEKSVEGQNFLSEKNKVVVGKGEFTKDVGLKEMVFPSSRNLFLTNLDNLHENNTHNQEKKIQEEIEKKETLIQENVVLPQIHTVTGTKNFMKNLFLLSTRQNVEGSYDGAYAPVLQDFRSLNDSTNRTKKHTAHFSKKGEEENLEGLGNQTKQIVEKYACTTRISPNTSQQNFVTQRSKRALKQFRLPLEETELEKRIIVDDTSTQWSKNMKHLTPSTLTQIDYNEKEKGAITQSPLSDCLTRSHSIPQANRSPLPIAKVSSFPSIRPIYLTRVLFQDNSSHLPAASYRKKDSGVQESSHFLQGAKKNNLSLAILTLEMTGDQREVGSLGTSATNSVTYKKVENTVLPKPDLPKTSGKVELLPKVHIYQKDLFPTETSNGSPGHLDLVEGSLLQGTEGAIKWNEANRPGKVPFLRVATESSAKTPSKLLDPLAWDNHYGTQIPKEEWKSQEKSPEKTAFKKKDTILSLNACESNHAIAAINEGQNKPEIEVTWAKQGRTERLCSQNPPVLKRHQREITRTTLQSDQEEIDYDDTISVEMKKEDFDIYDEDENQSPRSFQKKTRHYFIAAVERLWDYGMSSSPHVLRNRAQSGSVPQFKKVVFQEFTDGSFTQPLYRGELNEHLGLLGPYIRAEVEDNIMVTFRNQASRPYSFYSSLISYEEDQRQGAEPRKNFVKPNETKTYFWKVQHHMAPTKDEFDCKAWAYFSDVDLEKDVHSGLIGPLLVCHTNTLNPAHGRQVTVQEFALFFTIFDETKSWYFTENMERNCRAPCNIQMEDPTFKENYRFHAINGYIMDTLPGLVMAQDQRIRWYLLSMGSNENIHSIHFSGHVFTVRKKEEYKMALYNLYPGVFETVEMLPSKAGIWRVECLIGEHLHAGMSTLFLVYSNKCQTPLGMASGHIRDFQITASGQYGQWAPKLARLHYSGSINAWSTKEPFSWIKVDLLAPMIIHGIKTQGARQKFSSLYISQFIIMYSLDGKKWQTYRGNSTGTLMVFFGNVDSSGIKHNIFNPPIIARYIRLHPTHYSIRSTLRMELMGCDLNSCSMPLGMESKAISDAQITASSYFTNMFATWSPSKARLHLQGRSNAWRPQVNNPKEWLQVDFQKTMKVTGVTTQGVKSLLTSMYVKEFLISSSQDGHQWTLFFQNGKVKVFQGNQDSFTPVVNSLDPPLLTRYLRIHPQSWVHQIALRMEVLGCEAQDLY

Substance	tPA activation, Max. Activation (%) [1]	Bmax (OD450 nm) [2]	Kd [2]
Epoietin Alfa (from UniProt P01588 28-192) (ligand)	0%		
Etanercept (Enbrel) (Fc fusion)	0%		
human-murine chimeric monoclonal antibody (Remicade-infliximab)	0%		
tissue-type plasminogen activator (tPA) (from UniProt P00750 36-562) (enzyme)		0.54 OD450 nm	0.23 µM

Other lines, results leading:

tPA activation, Max. Activation (%) [1]	Bmax (OD450 nm) [2]	Kd [2]	Substance
4.22%			human coagulation factor VIII isolated from healthy volunteers (Aafact) (from UniProt P00451 20-2351)
11.2%			human glucagon (Glucagen) (from UniProt P01275 53-81) (peptide)
70.9%			rapid acting human insulin analogue (NovoRapid Flexpen) (from UniProt P01308 90-110; P01308 25-54) (ligand)
